Assay results taken from patent US12397037B2, “Methods and compositions for immunomodulation” (CHILDREN'S MEDICAL CENTER CORPORATION, priority 2014, dated 2025).

How the values were obtained:
[1] = system: C57BL/6 recipients of fully mismatched BALB/c cardiac allografts; test: Fully MHC mismatched cardiac allograft survival (BALB/c into C57BL/6); type: in vivo, mice; conditions: for mean graft survival: untreated controls 6.5 days
From the text: FIG. 2 depicts graft survival curves. Cardiac allografts (Balb/c) were transplanted into fully MHC mismatched recipients (C57BL/6). Unmanipulated recipients reject these allografts within 7-8 days.
FIG. 3 depicts graft survival curves. Cardiac allografts (Balb/c) were transplanted into fully MHC mismatched recipients (C57BL/6). Unmanipulated recipients reject these allografts within 7-8 days.
FIG. 4 depicts graft survival curves of C56BL6 recipient mice after transplantation with Balb/C donor hearts.
Described herein is the treatment of C57BL/6 recipients of fully mismatched BALB/c cardiac allografts with Sema3F.
Ba1b/C donor hearts were transplanted into C56BL6 mice.

U87MG cells = test: Human Phospho-Kinase Array, U87MG cells treated with SEMA3F; type: cell-based; conditions: 30 minutes
Method: FIG. 28A depicts U87MG cells untreated (control) or following treatment with SEMA3F (640 ng/ml) for 30 minutes. Cell lysates were evaluated by phosphoprotein kinase antibody array. FIG. 28B depicts results of the array validated by Western blot analysis. FIG. 28C depicts U87MG cells treated with SEMA3F (640 ng/ml) as a time course up to 60 minutes and were analyzed by Western blot. FIGS. 28B-28C are representative of 3 independent experiments. FIG. 28D depicts U87MG, Jurkat and HUVEC cells treated with SEMA3F (200, 600, 1800 ng/ml, bars from left to right) for 15 minutes (grey bars) or 30 minutes (black bars); as a positive control, HUVEC were treated with VEGF-A (25 ng/ml) for 15 and 30 minutes. In addition, HUVEC were pre-treated with SEMA3F (1800 ng/ml) or PBS as a control for 30 minutes and subsequently VEGF-A (25 ng/ml) was added to the culture for 15 and 30 minutes. PI-3K activity was analyzed by ELISA according to the manufacturer's instructions. Data represent the mean±SD of 3 experiments.
SEMA3F inhibits Akt, mTOR, and S6K phosphorylation. To determine the effect of SEMA3F on intracellular signaling responses, levels of phosphokinases in the NRP2-expressing human glioblastoma cell line U87MG were profiled.
Phospho-kinase array: The Human Phospho-Kinase Array Kit (ARY003) was obtained from R&D Systems. U87MG cells were treated with SEMA3F which was previously found to induce cytoskeletal collapse and inhibit RhoA activity (6). […] Thus, a concentration at 640 ng/ml was optimized to analyze SEMA3F signaling pathways. Cell lysates were collected at 30 minutes after SEMA3F treatment and the levels of phosphoproteins were analyzed with this array, according to the manufacturer's instructions.

B1: SEMA3F: Human recombinant full-length His-Myc-tagged SEMA3F, secreted by transfected 293T cells and purified; class 3 semaphorin, NRP-2 ligand (protein, listed as Homo sapiens)
chain: MLVAGLLLWASLLTGAWPSFPTQDHLPATPRVRLSFKELKATGTAHFFNFLLNTTDYRILLKDEDHDRMYVGSKDYVLSLDLHDINREPLIIHWAASPQRIEECVLSGKDVNGECGNFVRLIQPWNRTHLYVCGTGAYNPMCTYVNRGRRAQATPWTQTQAVRGRGSRATDGALRPMPTAPRQDYIFYLEPERLESGKGKCPYDPKLDTASALINEELYAGVYIDFMGTDAAIFRTLGKQTAMRTDQYNSRWLNDPSFIHAELIPDSAERNDDKLYFFFRERSAEAPQSPAVYARIGRICLNDDGGHCCLVNKWSTFLKARLVCSVPGEDGIETHFDELQDVFVQQTQDVRNPVIYAVFTSSGSVFRGSAVCVYSMADIRMVFNGPFAHKEGPNYQWMPFSGKMPYPRPGTCPGGTFTPSMKSTKDYPDEVINFMRSHPLMYQAVYPLQRRPLVVRTGAPYRLTTIAVDQVDAADGRYEVLFLGTDRGTVQKVIVLPKDDQELEELMLEEVEVFKDPAPVKTMTISSKRQQLYVASAVGVTHLSLHRCQAYGAACADCCLARDPYCAWDGQACSRYTASSKRRSRRQDVRHGNPIRQCRGFNSNANKNAVESVQYGVAGSAAFLECQPRSPQATVKWLFQRDPGDRRREIRAEDRFLRTEQGLLLRALQLSDRGLYSCTATENNFKHVVTRVQLHVLGRDAVHAALFPPLSMSAPPPPGAGPPTPPYQELAQLLAQPEVGLIHQYCQGYWRHVPPSPREAPGAPRSPEPQDQKKPRNRRHHPPDT
modifications: His-Myc tag
notes: Human recombinant full-length His-Myc-tagged SEMA3F, secreted by transfected 293T cells and purified; class 3 semaphorin, NRP-2 ligand
[1]; NRP-2KO recipients
  rejection in NRP-2KO mice: can inhibit rejection
[1]; Sema3F administered via adenovirus, n=4 mice
  mean graft survival: > 22 days
[1]; Sema3F administered via i.p. injection, n=16 mice
  mean graft survival: 23.4 days
[1]; day 5 post transplantation, mice of FIG. 2 (adenovirus)
  CD3, CD4, CD8 and Treg populations by FACS: no differences are observed
U87MG cells; SEMA3F 640 ng/ml, Image J
  intensity of dot/phosphoprotein AMPKa1 (T174): 0.269
  intensity of dot/phosphoprotein AMPKa2 (T172): 0.300
  intensity of dot/phosphoprotein Akt (S473): 0.396
  intensity of dot/phosphoprotein Akt (T308): 0.294
  intensity of dot/phosphoprotein CREB (S133): 0.295
  intensity of dot/phosphoprotein Chk-2 (T68): 0.297
  intensity of dot/phosphoprotein ERK1/2 (T202/Y204, T185/Y187): 0.301
  intensity of dot/phosphoprotein FAK (Y397): 0.275
  intensity of dot/phosphoprotein Fqr (Y412): 0.264
  intensity of dot/phosphoprotein Fyn (Y420): 0.276
  intensity of dot/phosphoprotein GSK-3a/b (S21/S9): 0.284
  intensity of dot/phosphoprotein HSP27 (S78/S82): 0.277
  intensity of dot/phosphoprotein Hck (Y411): 0.270
  intensity of dot/phosphoprotein JNK pan (T183/Y185, T221/Y223): 0.287
  intensity of dot/phosphoprotein Lck (Y394): 0.269
  intensity of dot/phosphoprotein Lyn (Y397): 0.269
  intensity of dot/phosphoprotein MEK1/2 (S218/S222, S222/S226): 0.277
  intensity of dot/phosphoprotein MSK1/2 (S376/S360): 0.293
  intensity of dot/phosphoprotein PLCq-1 (Y783): 0.262
  intensity of dot/phosphoprotein Paxillin (Y118): 0.264
  intensity of dot/phosphoprotein Pyk2 (Y402): 0.251
  intensity of dot/phosphoprotein RSK1/2 (S221/S227): 0.307
  intensity of dot/phosphoprotein RSK1/2/3 (S380/S386/S377): 0.320
  intensity of dot/phosphoprotein STAT1 (Y701): 0.298
  intensity of dot/phosphoprotein STAT2 (Y689): 0.305
  intensity of dot/phosphoprotein STAT3 (Y705): 0.270
  intensity of dot/phosphoprotein STAT4 (Y693): 0.285
  intensity of dot/phosphoprotein STAT5a (Y694): 0.281
  intensity of dot/phosphoprotein STAT5a/b (Y694/Y699): 0.311
  intensity of dot/phosphoprotein STAT5b (Y699): 0.270
  intensity of dot/phosphoprotein STAT6 (Y641): 0.304
  intensity of dot/phosphoprotein Src (Y419): 0.289
  intensity of dot/phosphoprotein TOR (S2448): 0.281
  intensity of dot/phosphoprotein Yes (Y426): 0.289
  intensity of dot/phosphoprotein b-Catenin: 0.323
  intensity of dot/phosphoprotein c-Jun (S63): 0.263
  intensity of dot/phosphoprotein eNOS (S1177): 0.240
  intensity of dot/phosphoprotein p27 (T157): 0.249
  intensity of dot/phosphoprotein p27 (T198): 0.242
  intensity of dot/phosphoprotein p38a (T180/Y182): 0.268
  intensity of dot/phosphoprotein p53 (S15): 0.312
  intensity of dot/phosphoprotein p53 (S46): 0.321
  intensity of dot/phosphoprotein p53 (S392): 0.312
  intensity of dot/phosphoprotein p70 S6 Kinase (T229): 0.264
  intensity of dot/phosphoprotein p70 S6 Kinase (T389): 0.241
  intensity of dot/phosphoprotein p70 S6 Kinase (T421/S424): 0.299
U87MG cells; SEMA3F vs Control, 640 ng/ml
  Ratio AMPKa1 (T174): 92.7
  Ratio AMPKa2 (T172): 94.5
  Ratio Akt (S473): 77.4
  Ratio Akt (T308): 92.6
  Ratio CREB (S133): 91.3
  Ratio Chk-2 (T68): 93.4
  Ratio ERK1/2 (T202/Y204, T185/Y187): 91.2
  Ratio FAK (Y397): 87.7
  Ratio Fqr (Y412): 94.1
  Ratio Fyn (Y420): 93.1
  Ratio GSK-3a/b (S21/S9): 91.0
  Ratio HSP27 (S78/S82): 94.0
  Ratio Hck (Y411): 91.4
  Ratio JNK pan (T183/Y185, T221/Y223): 91.5
  Ratio Lck (Y394): 94.2
  Ratio Lyn (Y397): 93.7
  Ratio MEK1/2 (S218/S222, S222/S226): 92.8
  Ratio MSK1/2 (S376/S360): 92.4
  Ratio PLCq-1 (Y783): 95.1
  Ratio Paxillin (Y118): 95.8
  Ratio Pyk2 (Y402): 93.1
  Ratio RSK1/2 (S221/S227): 97.8
  Ratio RSK1/2/3 (S380/S386/S377): 98.8
  Ratio STAT1 (Y701): 98.2
  Ratio STAT2 (Y689): 95.3
  Ratio STAT3 (Y705): 93.4
  Ratio STAT4 (Y693): 96.4
  Ratio STAT5a (Y694): 94.8
  Ratio STAT5a/b (Y694/Y699): 90.1
  Ratio STAT5b (Y699): 92.6
  Ratio STAT6 (Y641): 96.3
  Ratio Src (Y419): 91.0
  Ratio TOR (S2448): 91.8
  Ratio Yes (Y426): 94.6
  Ratio b-Catenin: 91.6
  Ratio c-Jun (S63): 94.3
  Ratio eNOS (S1177): 93.9
  Ratio p27 (T157): 94.3
  Ratio p27 (T198): 94.0
  Ratio p38a (T180/Y182): 91.8
  Ratio p53 (S15): 96.7
  Ratio p53 (S46): 93.6
  Ratio p53 (S392): 94.0
  Ratio p70 S6 Kinase (T229): 100.0
  Ratio p70 S6 Kinase (T389): 95.6
  Ratio p70 S6 Kinase (T421/S424): 97.4
